Results published in paper doi:10.1101/2022.07.04.498777 (bioRxiv, 2022).

Target: the molecule itself
Assay: dynamic light scattering

B1: Peptide G37 (peptide)
peptide: SLLTEVETPIRNEWGCRCNDSSD
B1: binds.
